This series can be described thus: protein stability index of a GFP-peptide fusion (GPS, HEK-293T) (PSI 1-6); higher = more stable.
[1] abbreviates: treatment: DMSO, c terminus: a fixed tail appended.
[2] abbreviates: treatment: MLN4924 1 uM, 8 h, c terminus: a fixed tail appended.
The mark [3] stands for this setting: treatment: DMSO, c terminus: native.
The mark [4] stands for this setting: treatment: MLN4924 1 uM, 8 h, c terminus: native.

± gives the standard deviation.

This passage reports protein stability index results from the supplement of paper PMC10567573.
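Note: 24-mer peptide tiles fused after GFP, lentivirally expressed, FACS-sorted into six equal bins by GFP/DsRed ratio, decoded by Illumina sequencing, PSI is the read-weighted mean bin number.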

AAAAAAASAAAATAAFTTAKAAAL [SPAG8]: the protein stability index under setting [1] came to 2.33 ± 0.26 and the protein stability index under setting [2] turned out to be 2.62 ± 0.75.
For the sequence AAAQSYPGYLPYSPEPPSLYGALN [IRX6], the protein stability index reads like this: under setting [1], 2.68 ± 0.077; under setting [2], 2.87 ± 0.2.
AAETASLEEQLQGWGEVMLMADKV [ARL6IP1] returned a protein stability index under setting [1] of 4.53 ± 0.082 and a protein stability index under setting [2] of 4.45 ± 0.19.
Take AAFQTILTEIYRIVSQKQMSDRRE [RAB11A]: the protein stability index reads like this: under setting [1], 2.77 ± 0.42; under setting [2], 2.52 ± 0.36.
AALELLPRELFPPLFMAAFDGRHS [PRAME]: the protein stability index is, setting by setting: under setting [1], 2.27 ± 0.38; under setting [2], 2.4 ± 0.18.
On to AALHMVIVAAFTWAFTLFFEVSE [KMT2E], for which the protein stability index under setting [3] amounted to 2.48 ± 0.21 and the protein stability index under setting [4] worked out at 2.34 ± 0.16.
For the sequence AAPLPERNSLSAIFNNVMTLCAML [SLC29A1], the protein stability index worked out at 2.57 ± 0.14 under setting [1] and 2.57 ± 0.31 under setting [2].
For AATPRTNSVISVCSSSNLAGNDDS [DLC1] the same measures were 5.08 ± 0.3 and 5.17 ± 0.083.
For AAVKENQMTPTNLAVCLAPSLFHL [DLC1] the same measures were 2.37 ± 0.06 and 2.61 ± 0.33.
With ADISEAEQRTIQAQKESLQNQHHS [APBB1IP], the protein stability index was 5.2 ± 0.38 under setting [1] and 5.23 ± 0.15 under setting [2].
Take AEALYQTKFQELQLAAGRHGDDLK [KRT71]: the protein stability index is, setting by setting: under setting [1], 4.61 ± 0.28; under setting [2], 4.71 ± 0.13.
Consider AEEYRLKEHYLTFEKSRYETYIHL [PSD2], for which the protein stability index is, setting by setting: under setting [1], 1.93 ± 0.2; under setting [2], 2.01 ± 0.46.
For the sequence AEKVNQDMCMKVPDDPEHLAARRQ [CRYL1], the protein stability index stood at 5.27 ± 0.61 under setting [1] and 5.15 ± 0.26 under setting [2].
Consider AFEPEALGNLVEGMDFHRFYFENA [CAMK2D], for which the protein stability index is 2.86 ± 0.44 under setting [1] and 2.78 ± 0.54 under setting [2].
Taken in the same sequence, the figures for AFHPLFSLTSGACRLDYRRPENRS [TCF25] were 2.29 ± 0.41 and 2.24 ± 0.24.
For the sequence AFLEPDETFIVPDSFLVALDMDDG [SPSB1], the protein stability index came to 3.46 ± 0.25 under setting [1] and 3.65 ± 0.48 under setting [2].
With AGGNSSSSAAMQSSCSSTSGGGGG [CCDC6], the protein stability index is, setting by setting: under setting [1], 5.08 ± 0.11; under setting [2], 5.035 ± 0.022.
As to AGHCSASPGPAAPTARMPGRLRG, the protein stability index worked out at 3 ± 0.6 under setting [3] and 2.93 ± 0.73 under setting [4].
Consider AGSFSRRLIKRFSFKSKPKANGNP [C2CD2L], for which the protein stability index under setting [1] was 3.19 ± 0.21 and the protein stability index under setting [2] was 3.55 ± 0.15.
Turning to AIFWIVFLLLIVFYTAITKKIFKS [P2RY14], the protein stability index amounted to 2.42 ± 0.6 under setting [1] and 2.27 ± 0.2 under setting [2].
For AKELTAEKRLEGQEEEEDNRDSSM [CHGA] the same measures were 5.67 ± 0.22 and 5.61 ± 0.31.
Consider AKHRLVPPAQGRVSRRLSPRKVST [TRIM9], for which the protein stability index was 4.37 ± 0.23 under setting [1] and 4.65 ± 0.12 under setting [2].
In the case of AKLHDVELHQVAERVEALGQFVMK [GNB5], the protein stability index is, setting by setting: under setting [1], 3.78 ± 0.2; under setting [2], 3.74 ± 0.14.
The sequence ALEQGGLRAATMSAVEAATCRAKE [PYCR3] gave a protein stability index under setting [1] of 4.68 ± 0.3 and a protein stability index under setting [2] of 4.96 ± 0.14.
ALKRFVNLVARHPLFSEDVVLKLF [SNX8]: the protein stability index stood at 2.38 ± 0.88 under setting [1] and 2.46 ± 0.1 under setting [2].
As for ALRNLPPLRAAHRRFNFDTDRPLL [SMG5], the protein stability index was 2.72 ± 0.21 under setting [1] and 2.85 ± 0.45 under setting [2].
Regarding ALSLLELLGFNLTFVFLASLLVLI [CLCN6], the protein stability index was found to be 3.23 ± 0.93 under setting [1] and 2.69 ± 0.97 under setting [2].
ALVQEKIQKRNQRQSGDRRQLPPP [WAS]: the protein stability index runs as follows: under setting [1], 4.31 ± 0.24; under setting [2], 4.59 ± 0.086.
For ANSAFAVDLFKQLCEKEPLGNVLF [SERPINB5] the same measures were 2.08 ± 0.29 and 2.47 ± 0.3.
Taken in the same sequence, the figures for APAPAPEEWLDILGNGLLRKKTLV [FKBP8] were 3.19 ± 0.32 and 3.24 ± 0.27.
Regarding APATGSGTPGPFTKEGGMLAYYEV [CHIT1], the protein stability index reads like this: under setting [1], 2.55 ± 0.25; under setting [2], 2.63 ± 0.16.
Sequence APDGSYFAWSQGHRTVKLVPWSQC [WSB1] came in with a protein stability index under setting [1] of 2.57 ± 0.47 and a protein stability index under setting [2] of 2.8 ± 0.42.
Take APFPNVSTSLLTSAGNRTHKARTR [ADAMTSL2]: the protein stability index was 4.68 ± 0.25 under setting [1] and 4.64 ± 0.29 under setting [2].
For the sequence APLLPHITATSLLGTRESDTEVIT [BCL2L13], the protein stability index was 4.58 ± 0.26 under setting [1] and 4.47 ± 0.2 under setting [2].
For the sequence APLTISRVHAGSKAALAALCPGDL [PDLIM4], the protein stability index is, setting by setting: under setting [1], 3.62 ± 0.37; under setting [2], 3.65 ± 0.28.
Taken in the same sequence, the figures for APQNSFSAKLAPHYFHSISYKIEE [KCNK9] were 3.21 ± 0.12 and 3.34 ± 0.16.
On to APWNYHYHCPGSPDHQVPYGHDYP [TRAF3IP2], for which the protein stability index is 2.6 ± 0.46 under setting [1] and 3.23 ± 0.3 under setting [2].
For the sequence AQPQGAPCCSSSPEEPLNGESYES [FEM1A], the protein stability index is, setting by setting: under setting [1], 5.41 ± 0.19; under setting [2], 5.53 ± 0.2.
As for ARGDAVCTACGSVLEDNIIVSEVQ [BRF1], the protein stability index under setting [1] worked out at 4.38 ± 0.19 and the protein stability index under setting [2] came to 4.34 ± 0.077.
For ARGPGPEGGGGGSYFSGQGSDTGA [JUNB] the same measures were 5.11 ± 0.27 and 4.91 ± 0.18.
ARIQQSRRQCHAEEDQSQVPEAG [SMIM2] gave a protein stability index under setting [3] of 3.25 ± 0.4 and a protein stability index under setting [4] of 3.29 ± 0.31.
Regarding ARLAADDFRVKYETELAMRQSVEN [KRT18], the protein stability index came to 4.39 ± 0.19 under setting [1] and 4.44 ± 0.21 under setting [2].
For the sequence ARVTGELTMTFPAGIVRVFSGTPP [FCHO1], the protein stability index under setting [1] amounted to 2.51 ± 0.16 and the protein stability index under setting [2] stood at 2.43 ± 0.23.
With ASALRTRMTGGRPPLPPPDDPATL [DYRK1B], the protein stability index runs as follows: under setting [1], 4.65 ± 0.13; under setting [2], 4.87 ± 0.23.
Taken in the same sequence, the figures for ASLHTLLGDPCPMLESPGAPCRSA [HDAC6] were 3.62 ± 0.23 and 3.83 ± 0.27.
As for ASSGDLTCGVCALELGSTEVLLDH [PLAGL1], the protein stability index by setting is: under setting [1], 2.68 ± 0.4; under setting [2], 2.82 ± 0.49.
As to ASSNVFSNFEQTQIQEFKEAFTLM [MYL5], the protein stability index was determined as 3.49 ± 0.18 under setting [1] and 3.42 ± 0.27 under setting [2].
Sequence ASTSTPSSTLVRPIRSRRALPPLR [FAM189A2] returned a protein stability index under setting [1] of 4.16 ± 0.17 and a protein stability index under setting [2] of 4.21 ± 0.21.
Sequence ATIFALSTMTSSVQIYNLSQNIQE [ATL3] came in with a protein stability index under setting [1] of 3.03 ± 0.76 and a protein stability index under setting [2] of 3.27 ± 0.71.
In the case of ATKTEPKKLEKYLQKLSALLMTAD [ELOA2], the protein stability index reads like this: under setting [1], 2.54 ± 0.59; under setting [2], 2.31 ± 0.54.
Consider ATLCLEFLLQNDANPSIRDKEGYN [ANKRD44], for which the protein stability index stood at 2.61 ± 0.26 under setting [1] and 2.73 ± 0.074 under setting [2].
On to ATTSASDSLKPEQLDIEEEGRPGA [TFE3], for which the protein stability index is, setting by setting: under setting [1], 5.5 ± 0.23; under setting [2], 5.35 ± 0.12.
For AVARSPKRPAWGSRRFEAVGWWAL [POMT2] the same measures were 2.88 ± 0.97 and 2.49 ± 0.51.
As for AVLRRIQLQPTSIEKEVFPIMAKE [GMPPB], the protein stability index is, setting by setting: under setting [1], 2.52 ± 0.33; under setting [2], 2.57 ± 0.36.
For AVQAQAGWLQHDFGHLSVFSTSKW [FADS1], the protein stability index is, setting by setting: under setting [1], 2.23 ± 0.18; under setting [2], 2.29 ± 0.33.
Regarding AVQHFYNIKLEGKVPMHKLFLEML [ESRRG], the protein stability index reads like this: under setting [1], 2.06 ± 0.42; under setting [2], 2.23 ± 0.22.
For the sequence AVQRFCLIGSLSKHESEYNTTRV [NETO1], the protein stability index was determined as 2.85 ± 1.1 under setting [3] and 2.48 ± 0.6 under setting [4].
Regarding AWEPRSESQASRKEEGLPEEEPSH [ZNF8], the protein stability index was determined as 5.38 ± 0.59 under setting [1] and 5.59 ± 0.1 under setting [2].
With AYMGHLDVVALLINHGAEVTCKDK [ANKRD44], the protein stability index is, setting by setting: under setting [1], 2.23 ± 0.39; under setting [2], 2.44 ± 0.19.
As to CAGPLEDAVTIPCGHTFCRLCLPA [TRIM15], the protein stability index by setting is: under setting [1], 2.69 ± 0.21; under setting [2], 2.67 ± 0.37.
For CAKMEKDGYGMTPLLSASVTGHTN [FEM1C] the same measures were 3.58 ± 0.26 and 3.55 ± 0.11.
As for CAQMLPPNLSPHAPWNYHYHCPGS [TRAF3IP2], the protein stability index was 2.56 ± 0.49 under setting [1] and 2.28 ± 0.29 under setting [2].
Take CAVMNVVFITILIIALIALSVGQY [CD69]: the protein stability index runs as follows: under setting [1], 3.04 ± 0.34; under setting [2], 2.47 ± 0.48.
As to CDLADRELVVIIGWAKHIPGFSTL [ESRRG], the protein stability index is, setting by setting: under setting [1], 2.92 ± 0.76; under setting [2], 3.05 ± 0.56.
On to CDQYSCALTGPVVDIVTGHARLSD [DHCR7], for which the protein stability index came to 3.57 ± 0.25 under setting [1] and 3.71 ± 0.17 under setting [2].
For the sequence CFNRSREYQLNDSAAYYLNDLDRI [GNAI1], the protein stability index turned out to be 2.51 ± 0.25 under setting [1] and 2.46 ± 0.23 under setting [2].
Regarding CFPSTQKPTEPSVPVQPLLPESLA [FBF1], the protein stability index is, setting by setting: under setting [1], 4.14 ± 0.23; under setting [2], 4.16 ± 0.15.
CGACLTQLFFFHLFVGVDCFLLTA [OR3A1] registered a protein stability index under setting [1] of 3.07 ± 0.2 and a protein stability index under setting [2] of 3.02 ± 0.33.
CGTKYPVEWAKFCCECGIRRMIL [ZC2HC1A]: the protein stability index is, setting by setting: under setting [3], 3.11 ± 0.39; under setting [4], 3.53 ± 0.055.
With CHEEVYAGSHQYPGRGVYLLKFDN [ACBD3], the protein stability index by setting is: under setting [1], 2 ± 0.64; under setting [2], 2.16 ± 0.8.
As to CHHGLVADSLQASMEKDATLNVDR [DLC1], the protein stability index turned out to be 4.35 ± 0.12 under setting [1] and 4.47 ± 0.25 under setting [2].
Turning to CKGRDHGVLDALHVLEGLFRTDPE [ZSWIM9], the protein stability index was 2.8 ± 0.05 under setting [1] and 2.81 ± 0.26 under setting [2].
